Results published in paper PMC10826351.

biological target: T1, PbtAC (PbtA C-terminal domain) (Vibrio anguillarum RV22) (UniProt A0A289GIJ0); experiment: EMSA; settings: 1 mM Tris pH 7.5, 155 mM KCl, 0.1 mM DTT, 5% glycerol, 5 mM MgCl2, 1 mM EDTA, 0.3 mg/mL BSA, 30 min at 20 C
T1 sequence: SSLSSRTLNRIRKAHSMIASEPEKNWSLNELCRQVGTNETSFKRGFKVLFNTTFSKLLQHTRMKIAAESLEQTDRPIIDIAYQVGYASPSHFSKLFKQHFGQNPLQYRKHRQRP

Q: With “AAAAATAGACGACCCGATCTATTCAAGCTTGTTTAAAATAACAATCATAAACGTCGATTCACGCTCTTTTTATGCCTTATTCAGTTAGCAGGTAAAAGACAGAATCGGCACTATAAGTTCAATATGGATACCACAG (double strand) [Probe 5 (frpA)]” as the substance, how does the binding read?
A: The binding was “binds”.

Q: “TAAAACAAAACCAGAAAATAAAATAAAAATCAACAAAATTAAATGCTTAATTTTAATTAAGTTC (double strand) [Probe 4 (frpA, 6xAAAAT low complexity region)]” was tested. Which binding did it give?
A: Its binding is “no binding”.

same assay, conditions: 1 mM Tris pH 7.5, 155 mM KCl, 0.1 mM DTT, 5% glycerol, 5 mM MgCl2, 1 mM EDTA, 0.3 mg/mL BSA, 30 min at 20 C, scale: free probe band ratio to no-protein control

Q: Which binding signal does the source give for “TATTGAGCAATTGAGGATTAATGAATGTGGCCACTAATATACTAATACCGATTGCTGAGTGGTGGGCTAGTTACGACTAAACGCGACGATTTTATACCTAATTGCGTTAGCGATGGCATGCATATTCAGCAAAAATAGCCTCCATTTATG (double strand) [Probe 12 (frpC)]” here?
A: The binding signal was 0.7.

system: PbtAC (PbtA C-terminal domain) (Vibrio anguillarum RV22); experiment: EMSA; settings: 1 mM Tris pH 7.5, 155 mM KCl, 0.1 mM DTT, 5% glycerol, 5 mM MgCl2, 1 mM EDTA, 0.3 mg/mL BSA, 30 min at 20 C, scale: free probe band ratio to no-protein control

Q: With LPS wzi(ab) promoter (P4) as the substance, how does the binding signal read?
A: The binding signal was 0.26.

Q: vanT promoter (P3) was tested. Which binding signal did it give?
A: Its binding signal is 0.81.

Q: How did the binding signal turn out when PfrpC (Probe 9) was run?
A: The binding signal was 0.41.

Q: Which binding signal does the source give for hcp2 promoter (P6) here?
A: The binding signal was 0.28.

Q: hcp1 promoter (P5) was tested. Which binding signal did it give?
A: Its binding signal is 0.74.

Q: For PfrpA (Probe 1), which binding signal is on record?
A: Its binding signal is 0.49.

Q: vipA promoter (P1?) was tested. Which binding signal did it give?
A: Its binding signal is 0.2.

Q: With vgrG promoter (P2?) as the substance, how does the binding signal read?
A: Its binding signal is 0.09.
